# Experiment: Hematology of a healthy dog given 1.5 mg/kg on day 1 and 2.0 mg/kg on day 70, sub-mucosa
# Type: in vivo
# Procedure: Before each dose, the dog was examined by clinical chemistry, hematology, and urinalysis. Additional examinations of clinical chemistry and hematology were performed on days 7, 14, and 42 after the first dose. Additional tests of urinalysis were performed on days 7 and 14 after the first dose. The potential drug-induced toxicities were monitored for 56 days after the second dose. Specifically, clinical chemistry and urinalysis were performed on days 7, 14, 21, and 56, and hematology was performed on days 7, 14, and 56 after the second dose to evaluate the tolerability and toxicity of the formulation.
# Hematology examinations were performed at pre- and post-dose for both injections. The injections were given via the sub-mucosa in the mouth.
substance,measurement,setting,value
HA-cis-[Pt(NH3)2(N^α-Acetyl-L-Lysine)] [75HA-Lys-Pt],"Differential white blood cell count, % BASO","2 mg/kg, 7 days after",0.9%
same,"Differential white blood cell count, % EOS","2 mg/kg, 7 days after",1.9%
same,"Differential white blood cell count, % LUC","2 mg/kg, 7 days after",0.8%
same,"Differential white blood cell count, % LYMPH","2 mg/kg, 7 days after",29%
same,"Differential white blood cell count, % MONO","2 mg/kg, 7 days after",7.5%
same,"Differential white blood cell count, % NEUT","2 mg/kg, 7 days after",60%
same,Hematocrit,"2 mg/kg, 7 days after",38%
same,Hemoglobin,"2 mg/kg, 7 days after",12.7 g/dL
same,Hemoglobin distribution width,"2 mg/kg, 7 days after",1.84 g/dL
same,Mean corpuscular (cell) hemoglobin,"2 mg/kg, 7 days after",21.9 pg
same,Mean corpuscular (cell) hemoglobin concentration,"2 mg/kg, 7 days after",33.4 g/dL
same,Mean corpuscular (cell) volume,"2 mg/kg, 7 days after",65.6 fL
same,Platelet count,"2 mg/kg, 7 days after",36 10^3/μL
same,Red blood cell count,"2 mg/kg, 7 days after",5.79 10^6/μL
same,Red cell distribution width,"2 mg/kg, 7 days after",13.5%
same,Reticulocyte count,"2 mg/kg, 7 days after",1.59%
same,White blood cell count,"2 mg/kg, 7 days after",8.2 10^3/μL
same,"Differential white blood cell count, % BASO","2 mg/kg, 14 days after",0.5%
same,"Differential white blood cell count, % EOS","2 mg/kg, 14 days after",3.4%
same,"Differential white blood cell count, % LUC","2 mg/kg, 14 days after",0.6%
same,"Differential white blood cell count, % LYMPH","2 mg/kg, 14 days after",28.5%
same,"Differential white blood cell count, % MONO","2 mg/kg, 14 days after",4.3%
same,"Differential white blood cell count, % NEUT","2 mg/kg, 14 days after",62.7%
same,Hematocrit,"2 mg/kg, 14 days after",35.6%
same,Hemoglobin,"2 mg/kg, 14 days after",11.8 g/dL
same,Hemoglobin distribution width,"2 mg/kg, 14 days after",2.33 g/dL
same,Mean corpuscular (cell) hemoglobin,"2 mg/kg, 14 days after",21.6 pg
same,Mean corpuscular (cell) hemoglobin concentration,"2 mg/kg, 14 days after",33.1 g/dL
same,Mean corpuscular (cell) volume,"2 mg/kg, 14 days after",65.2 fL
same,Platelet count,"2 mg/kg, 14 days after",232 10^3/μL
same,Red blood cell count,"2 mg/kg, 14 days after",5.47 10^6/μL
same,Red cell distribution width,"2 mg/kg, 14 days after",14.2%
same,Reticulocyte count,"2 mg/kg, 14 days after",3.2%
same,White blood cell count,"2 mg/kg, 14 days after",10.43 10^3/μL
same,"Differential white blood cell count, % BASO","2 mg/kg, 56 days after",0.7%
same,"Differential white blood cell count, % EOS","2 mg/kg, 56 days after",4.3%
same,"Differential white blood cell count, % LUC","2 mg/kg, 56 days after",0.5%
same,"Differential white blood cell count, % LYMPH","2 mg/kg, 56 days after",26.6%
same,"Differential white blood cell count, % NEUT","2 mg/kg, 56 days after",63.4%
same,Hematocrit,"2 mg/kg, 56 days after",36.9%
same,Hemoglobin,"2 mg/kg, 56 days after",12.1 g/dL
same,Hemoglobin distribution width,"2 mg/kg, 56 days after",2.04 g/dL
same,Mean corpuscular (cell) hemoglobin,"2 mg/kg, 56 days after",21.4 pg
same,Mean corpuscular (cell) hemoglobin concentration,"2 mg/kg, 56 days after",32.8 g/dL
same,Mean corpuscular (cell) volume,"2 mg/kg, 56 days after",65.4 fL
same,Red blood cell count,"2 mg/kg, 56 days after",5.64 10^6/μL
same,Red cell distribution width,"2 mg/kg, 56 days after",13.7%
same,Reticulocyte count,"2 mg/kg, 56 days after",1.3%
same,White blood cell count,"2 mg/kg, 56 days after",11.3 10^3/μL
same,"Differential white blood cell count, % BASO","[…], 7 days after",0.7%
same,"Differential white blood cell count, % EOS","[…], 7 days after",2.0%
same,"Differential white blood cell count, % LUC","[…], 7 days after",0.6%
same,"Differential white blood cell count, % LYMPH","[…], 7 days after",37.6%
same,"Differential white blood cell count, % NEUT","[…], 7 days after",55.4%
same,Hematocrit,"[…], 7 days after",37.8%
same,Hemoglobin,"[…], 7 days after",12.7 g/dL
same,Hemoglobin distribution width,"[…], 7 days after",2.08 g/dL
same,Mean corpuscular (cell) hemoglobin,"[…], 7 days after",23.0 pg
same,Mean corpuscular (cell) hemoglobin concentration,"[…], 7 days after",33.6 g/dL
same,Mean corpuscular (cell) volume,"[…], 7 days after",68.4 fL
same,Platelets (footnote a),"[…], 7 days after","^aPlatelets appear adequate. Platelet clumps observed, number not reported."
same,Red blood cell count,"[…], 7 days after",5.53 10^6/μL
same,Red cell distribution width,"[…], 7 days after",13.3%
same,Reticulocyte count,"[…], 7 days after",1.40%
same,White blood cell count,"[…], 7 days after",7.69 10^3/μL
same,"Differential white blood cell count, % BASO","[…], 14 days",0.7%
same,"Differential white blood cell count, % EOS","[…], 14 days",2.0%
same,"Differential white blood cell count, % LUC","[…], 14 days",0.6%
same,"Differential white blood cell count, % LYMPH","[…], 14 days",37.6%
same,"Differential white blood cell count, % NEUT","[…], 14 days",55.4%
same,Hematocrit,"[…], 14 days",38.2%
same,Hemoglobin,"[…], 14 days",12.6 g/dL
same,Hemoglobin distribution width,"[…], 14 days",2.29 g/dL
same,Mean corpuscular (cell) hemoglobin,"[…], 14 days",22.6 pg
same,Mean corpuscular (cell) hemoglobin concentration,"[…], 14 days",33.0 g/dL
same,Mean corpuscular (cell) volume,"[…], 14 days",68.7 fL
same,Platelet count,"[…], 14 days",307 10^3/μL
same,Red blood cell count,"[…], 14 days",5.56 10^6/μL
same,Red cell distribution width,"[…], 14 days",13.7%
same,Reticulocyte count,"[…], 14 days",1.84%
same,White blood cell count,"[…], 14 days",12.91 10^3/μL
same,"Differential white blood cell count, % BASO","[…], 42 days",1.4%
same,"Differential white blood cell count, % EOS","[…], 42 days",2.0%
same,"Differential white blood cell count, % LUC","[…], 42 days",0.8%
same,"Differential white blood cell count, % LYMPH","[…], 42 days",37.6%
same,"Differential white blood cell count, % MONO","[…], 42 days",5.1%
same,"Differential white blood cell count, % NEUT","[…], 42 days",53.1%
same,Hematocrit,"[…], 42 days",46.4%
same,Hemoglobin,"[…], 42 days",15.3 g/dL
same,Hemoglobin distribution width,"[…], 42 days",1.71 g/dL
same,Mean corpuscular (cell) hemoglobin,"[…], 42 days",22.4 pg
same,Mean corpuscular (cell) hemoglobin concentration,"[…], 42 days",33.0 g/dL
same,Mean corpuscular (cell) volume,"[…], 42 days",67.9 fL
same,Platelet count,"[…], 42 days",307 10^3/μL
same,Red blood cell count,"[…], 42 days",6.83 10^6/μL
same,Red cell distribution width,"[…], 42 days",12.4%
same,White blood cell count,"[…], 42 days",10.82 10^3/μL
